According to patent publication US20250129175A1 (SUNSHINE GUOJIAN PHARMACEUTICAL SHANGHAI, published 2025):

Assays:
[1] = target: T1, CD38-ECD-Cyno (cynomolgus monkey, UniProt Q5VAN0 44-301); assay: ELISA, plate coated with CD38-ECD-Cyno (10 ng/well), anti-human Fc-HRP detection
T1 construct: Recombinant protein expressed in HEK293F cells and purified on Ni-NTA; Coated on the ELISA plate at 10 ng/well; also called cynomolgus monkey CD38; cynomolgus monkeys CD38; not shown: polyhistidine tag added at the end of the gene
Method: The microplates were coated with corresponding recombinant proteins and closed with PBST containing 1% bovine serum albumin (PBST is a phosphate buffer containing 0.05% Tween-20). The tested antibody was diluted in a gradient and it was transferred to a microplate coated with recombinant protein. The sample was incubated at room temperature for half an hour. After washing the plate, appropriately diluted HRP (Horseradish Peroxidase) labeled sheep anti human antibody (Fc specific, purchased from Sigma) was added and incubated at room temperature for half an hour. After washing, 100 μL color developing solution with TMB(3,3′,5,5′-Tetramethylbenzidine) as substrate was added to each well and incubated at room temperature for 1˜5 min. The reaction was terminated by adding 50 μL termination solution (2 M H₂SO₄). The board reader (SpectraMax 190) reads OD450. GraphPad Prism7 was used for mapping and data analysis, and EC50/IC50 was calculated.
Microplate (10 ng/well) was coated with CD38-ECD-Cyno, and the binding ability of CD38-ECD-Cyno to 50G12-Hu-IgG1, OKT10-Hu-IgG1, Daratumumab-IgG1, and Isatuximab-IgG1 was determined by ELISA.

[2] = target: T2, Human CD38 protein (human, UniProt P28907 43-300, limits assumed, biotinylated with EZ-Link NHS-LC-Biotin (sites not given)); assay: SPR, Biacore 8K, biotinylated CD38 captured on CAP chip, antibody as analyte, 1:1 model
T2 construct: Biotinylated and captured on a Biacore CAP chip; also called CD38-biotin; Biotin-CD38

T1 sequence (Q5VAN0 44-301): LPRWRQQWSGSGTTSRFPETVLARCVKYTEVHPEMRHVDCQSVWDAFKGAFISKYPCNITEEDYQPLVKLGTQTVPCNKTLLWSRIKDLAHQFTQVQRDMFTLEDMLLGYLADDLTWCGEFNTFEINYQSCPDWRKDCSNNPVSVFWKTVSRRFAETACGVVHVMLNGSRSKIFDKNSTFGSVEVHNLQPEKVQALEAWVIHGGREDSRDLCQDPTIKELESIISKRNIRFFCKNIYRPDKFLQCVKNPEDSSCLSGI

EC50 [1]	Kd [2]	koff [2]	kon [2]	Binder
0.132 nM				OKT10-Hu-IgG1 (antibody, V domains shown, Humanized anti-human CD38 IgG1/kappa; also called humanized OKT10) VH: EVQLVESGGGLVQPGGSLRLSCAASGFDFSRSWMNWVRQAPGKGLEWVSEINPDSSTINYTTSLKDRFTISRDNAKNSLYLQMNSLRAEDTAVYYCARYGNWFPYWGQGTLVTVSS VL: DIQMTQSPSSLSASVGDRVTITCKASQNVDTNVAWYQQKPGKAPKALIYSASYRYSGVPSRFSGSGSGTDFTLTISSLQPEDFATYYCQQYDSYPLTFGQGTKVEIKR
	3.58 nM	0.000613 s⁻¹	171000 M⁻¹ s⁻¹	50G12-Hu-IgG1 (antibody, Humanized anti-human CD38 IgG1/kappa, expressed in HEK293F cells and purified on Protein A; also called 50G12-Humanized; unmutated antibody 50G12-Hu-IgG1) heavy: not shown light: DIQMTQSPSSLSASVGDRVTITCTASSSVSSSYLHWYQQKPGKAPKLWMYGTSNLASGVPSRFSGSGSGTDYTLTISSLQPEDFATYYCHRYHRSPWTFGQGTKVEIKRTVAAPSVFIFPPSDEQLKSGTASVVCLLNNFYPREAKVQWKVDNALQSGNSQESVTEQDSKDSTYSLSSTLTLSKADYEKHKVYACEVTHQGLSSPVTKSFNRGEC
	2.99 nM	0.00103 s⁻¹	346000 M⁻¹ s⁻¹	50G12-L309W-E345R (antibody, human IgG1, kappa, also called 50G12-Hu-IgG1-L309W-E345R) heavy: not shown light: DIQMTQSPSSLSASVGDRVTITCTASSSVSSSYLHWYQQKPGKAPKLWMYGTSNLASGVPSRFSGSGSGTDYTLTISSLQPEDFATYYCHRYHRSPWTFGQGTKVEIKRTVAAPSVFIFPPSDEQLKSGTASVVCLLNNFYPREAKVQWKVDNALQSGNSQESVTEQDSKDSTYSLSSTLTLSKADYEKHKVYACEVTHQGLSSPVTKSFNRGEC
